Test results: US11266642B2, “Small molecule inhibitors of HLA-DR3 binding for treating autoimmune thyroiditis” (ICAHN SCHOOL OF MEDICINE AT MOUNT SINAI, priority 2015, dated 2022)
No end group written: not given here. *: point of attachment. Biotin = O=C1N[C@H]2[C@H](CS[C@H]2CCCCC(=O)*)N1

Molecular target: T1, HLA-DR3 on VAVY cells (HLA-DRβ1-Arg74 positive) (Homo sapiens, UniProt P01903+P01911, A100K/A102G/A103R/A169T/F55Y/I96L/K41T/L162R/M171V/P40S/Q125H/Q178H/Q39Y/R42S/S66N/T106N/T262R/W38E/Y61H)
T1 construct: VAVY B-cell line that is homozygous for DR3 (confirmed to contain DRβ1-Arg74); host or cells: VAVY B-cell line
Experiment: Tg.2098 peptide binding to VAVY cells, flow cytometry
Assay type: cell-based
Details: incubated without Ia (40% Captisol alone); biotinylated peptide
Method: VAVY cells (European Collection of Cell Cultures) were cultured in RPMI (ATCC, Manassas, Va.) supplied with 10% FBS (Sigma-Aldrich, St. Louis, Mo.), 1% Penicillin-Streptomycin (Corning, N.Y.), 2 mM glutamine (Corning, N.Y.) and […] ciprofloxacin hydrochloride (Hospira, Lake Forest, Ill.). Cells were grown at 37° C., 5% CO2 and passaged 1-2 times a week. Cells expressing DR2 (National Development and Research Institutes, Inc) were cultured using the same conditions as VAVY cells. N-terminal biotinylated peptide Tg.2098 was used to test for binding to VAVY cells which express HLA-DR3 on their surface (HLA-DRβ1-Arg74 positive). APC Streptavidin (BD Biosciences, Franklin Lakes, N.J.) was used to detect the biotinylated peptides. A scrambled peptide of Tg.2098 (scr2098) was used as a negative control. VAVY cells were seeded at 2.5×10^6 cells/mL in a 24-well plate (BD Biosciences) and pre-incubated for 7 hours with 0.025 mM of compound Ia or 40% Captisol (Ligand Pharmaceuticals, Inc, La Jolla, Calif.) [the vehicle used to dissolve test compound in this experiment], before 0.5 μM Tg.2098 was added. After 24 h incubation, cells were stained with PE mouse anti-human HLA-DR (BD Biosciences) and APC Streptavidin to detect binding of the peptide to VAVY cells and the inhibitory effect of Compound Ia. Inhibition was analyzed by flow cytometry. As a negative control, cells expressing HLA-DR2 were pre-incubated with example Ia or 40% Captisol, before biotinylated myelin basic protein (MBP) 87-99 (known binder to HLA-DR2) was added and incubated for 24 hours. HLA-DR2 cells were stained with PE mouse anti-human HLA-DR and APC Streptavidin to detect binding of biotinylated MBP87-99 to DR2 expressing cells and to assess the inhibitory effect of compound Ia on peptide binding. To confirm the ELISA results we performed binding inhibition studies using the VAVY B-cell line that is homozygous for DR3 (confirmed to contain DRβ1-Arg74). […]

T1 sequence (P01903 26-254, other chains not shown): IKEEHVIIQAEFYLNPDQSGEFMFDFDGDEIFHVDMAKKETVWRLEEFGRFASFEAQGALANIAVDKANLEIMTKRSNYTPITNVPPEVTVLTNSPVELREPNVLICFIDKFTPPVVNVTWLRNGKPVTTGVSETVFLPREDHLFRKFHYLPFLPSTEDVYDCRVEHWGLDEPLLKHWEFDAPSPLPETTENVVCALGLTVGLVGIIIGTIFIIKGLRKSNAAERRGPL

| binding of peptide to HLA-DR3-positive VAVY cells [%] | Sequence |
| --- | --- |
| 42.7 | LSSVVVDPSIRHFDV (Biotin-LSSVVVDPSIRHFDV) [Tg.2098] |
| 2.1 | HDLFSRIDSSVVVVP [scr.2098] |
